This note sets out measurements from patent US20260209333A1 (VETMAB BIOSCIENCES, published 2026).

Changes are numbered by the printed parent chain.

Test [1] deals with T1, Canine TNF-alpha (Sino Biologicals) (canine, UniProt P51742 77-233).
T1 construct: Bought protein; also called Canine TNFα
Nature of the test: SPR, Biacore 8K, antibody captured on Protein A chip, antigen as analyte, 25 C. How it is done:
This study was performed to measure the binding affinity of antibodies to antigens using a Biacore 8K.
(§1) All the data were processed using the Biacore 8K Evaluation software version 3.0. Flow cell 1 and blank injection of buffer in each cycle were used as double reference for Response Units subtraction.

Test [2] deals with T2, Recombinant canine IL23 (single chain p40 + linker + p19, Avitag, polyHis tag) (canine).
T2 construct: Single chain p40-linker-p19 with a tag for site specific biotinylation and a polyHis tag, expressed in CHO cells as a monomeric protein; also called canine IL23 polypeptide
T2 chain: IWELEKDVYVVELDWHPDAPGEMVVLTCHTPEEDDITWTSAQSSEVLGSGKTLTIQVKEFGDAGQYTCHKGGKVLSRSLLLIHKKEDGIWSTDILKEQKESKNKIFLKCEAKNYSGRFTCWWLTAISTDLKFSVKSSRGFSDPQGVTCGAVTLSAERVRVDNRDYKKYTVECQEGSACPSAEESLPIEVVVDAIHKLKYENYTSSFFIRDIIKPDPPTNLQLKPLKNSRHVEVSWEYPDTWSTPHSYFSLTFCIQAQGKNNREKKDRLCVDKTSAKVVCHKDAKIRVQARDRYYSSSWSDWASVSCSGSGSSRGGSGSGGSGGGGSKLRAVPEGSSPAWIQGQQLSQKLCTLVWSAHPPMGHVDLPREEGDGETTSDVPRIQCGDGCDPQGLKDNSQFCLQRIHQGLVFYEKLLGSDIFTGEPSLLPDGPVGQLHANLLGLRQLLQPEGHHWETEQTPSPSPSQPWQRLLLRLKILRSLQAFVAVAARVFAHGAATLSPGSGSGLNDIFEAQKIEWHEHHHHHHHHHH
Nature of the test: Biacore affinity assay ('Active' = specific binding to canine IL23).

The target of test [3] is T2, Recombinant canine IL23 (single chain …). Nature of the test: SPR, Biacore 8K, antibody captured on Protein A chip, antigen as analyte, 25 C. Here is the method:
(§2) This study was performed to measure the binding affinity of anti-IL23 antibodies to IL23 and p40 antigens using a Biacore 8K.
as §1

The next test has as its target T3, Canine p40 polypeptide (canine, UniProt Q28268 23-329).
T3 sequence (looked up): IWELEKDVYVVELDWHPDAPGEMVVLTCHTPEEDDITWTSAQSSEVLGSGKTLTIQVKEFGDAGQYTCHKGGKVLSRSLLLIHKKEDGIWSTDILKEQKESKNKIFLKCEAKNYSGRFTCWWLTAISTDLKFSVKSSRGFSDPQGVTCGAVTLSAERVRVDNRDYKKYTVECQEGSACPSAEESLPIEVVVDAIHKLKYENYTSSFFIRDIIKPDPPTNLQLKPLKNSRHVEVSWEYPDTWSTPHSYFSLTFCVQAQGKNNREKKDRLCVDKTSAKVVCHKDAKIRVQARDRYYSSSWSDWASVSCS
The description is as above. Here is the method:
as §2, §1

T1 sequence (P51742 77-233 limits assumed): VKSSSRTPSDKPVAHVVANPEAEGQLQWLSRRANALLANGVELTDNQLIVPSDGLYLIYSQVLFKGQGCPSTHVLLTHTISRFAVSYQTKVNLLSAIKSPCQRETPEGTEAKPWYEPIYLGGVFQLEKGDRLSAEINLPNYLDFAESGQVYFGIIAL

B1: Caninized anti-TNFα D2E7 antibody (caninized VL + canine kappa constant region; caninized VH + canine IgG-B constant region) (antibody, V domains shown)
VH: EVQLVESGGDLVKPAESLRLSCVASGFTFDDYAMHWVRQAPGKGLEWVSAITWNSGHIDYADSVEGRFTISRDNARNTLYLQMNSLRAEDTAVYYCAKVSYLSTASSLDYWGQGTLVTVSS
VL: DIVMTQTPLSLSVSPGEPASISCRASQGIRNYLAWYQQKPGKAPKLLIYAASTLQSGVPDRFSGSGSGTDFTLRIGRVEAEDAGIYYCQRYNRAPYTFGQGTRLEVRR
notes: Expressed in Expi293F cells, 150 kDa, captured on a Protein A chip; also called Caninized Anti-TNF-VH-VL
With B1, in test [1], the Kd turned out to be 3.91 nM, the koff was 0.000818 s⁻¹ and the kon came to 209000 M⁻¹ s⁻¹.

B2: Anti-IL23 C340 VL / caninized VH variant V1 (antibody, V domains shown)
VH: EVQLVQSGAEVKKPGASVKVSCKGSGYSFTTYWLGWVRQAPGAGLDWMGIMSPVDSDIRYAGKFQGQVTMSVDTSTSTAYMELSSLRAGDIAVYYCARRRPGQGYFDFWGQGTLVTVSS
VL: DIQMTQSPSSLSASVGDRVTITCRASQGISSWLAWYQQKPEKAPKSLIYAASSLQSGVPSRFSGSGSGTDFTLTISSLQPEDFATYYCQQYNIYPYTFGQGTKLEIK
notes: also called VL C340 + VH V1
B2: in test [2], the binding result was “binds”.

B3: Caninized anti-IL23 with VL domain V2.1 and VH domain V1.1 (antibody, V domains shown)
VH: B2 VH with A61S, G62P, K63S
VL: DIVMTQTPLSLSVSPGEPASISCRASQGISSWLAWYQQKAEKAPKSLIYAASSLQSGVPDRFSGSGSGTDFTLRIGRVEAEDAGIYYCQQYNIYPYTFGQGTRLEVR
notes: also called VL V2.1 + VH V1.1; exemplary caninized anti-IL23
For the molecule B3, in test [2], the binding result is “binds”.

B4: Chimeric anti-IL23 antibody (clone C340 VL and VH domains fused to canine kappa light chain constant region and canine IgG-B constant region) (antibody, V domains shown)
VH: EVQLVQSGAEVKKPGESLKISCKGSGYSFTTYWLGWVRQMPGKGLDWIGIMSPVDSDIRYSPSFQGQVTMSVDKSITTAYLQWNSLKASDTAMYYCARRRPGQGYFDFWGQGTLVTVSS
VL: DIQMTQSPSSLSASVGDRVTITCRASQGISSWLAWYQQKPEKAPKSLIYAASSLQSGVPSRFSGSGSGTDFTLTISSLQPEDFATYYCQQYNIYPYTFGQGTKLEIKR
notes: also called Anti-IL23-VH-VL; Anti-IL23 (full length IgG form)
On to B4, for which, in test [3], the Kd came out at 0.58 nM, the koff is 0.00338 s⁻¹ and the kon came to 5.83e+06 M⁻¹ s⁻¹. In the test with Canine p40 polypeptide, the Kd turned out to be 1.02 nM, the koff turned out to be 0.00478 s⁻¹ and the kon amounted to 4.68e+06 M⁻¹ s⁻¹.

B5: Anti-IL23 caninized VL variant V2 / caninized VH variant V6 (antibody, human IgG1, V domains shown)
VH: EVQLVESGGDLVKPGGSLRLSCKGSGYSFTTYWLGWVRQAPGKGLQWIGIMSPVDSDIRYADAVKGRFTVSRDNAKRTLYLQMNSLRAEDTAIYYCARRRPGQGYFDFWGQGTLVTVSS
VL: B3 VL with Q37L, E41G, K42Q, A43S, K45R, S46L, I48P
notes: also called VL V2 + VH V6
For the molecule B5, the binding result in test [2] is “binds”.
